# From article PMC5473940, “SAF-A Regulates Interphase Chromosome Structure through Oligomerization with Chromatin-Associated RNAs” (Cell, 2017)
# B1: full-length FLAG-tagged SAF-A (293T) (natural protein)
# chain: not shown
# notes: SAF-A (HNRNP-U), human cDNA from Genome Cube; Modified pcDNA5/FRT vector; also called FLAG-SAF-A; 3xFLAG-SAF-A; source: 293T, expressed, cross-linked in cells, immuno-purified (anti-FLAG M2 agarose, 3xFLAG peptide elution); not shown: 3xFLAG, N-terminal, kept
# Molecular target: the molecule itself
# Assay: native gel or EMSA; FLAG-SAF-A cross-linked in cells with 1 mM DTME, immuno-purified, cross-links reversed with 10 mM DTT, incubated 30 min at 37°C with 1 mM ATP or ATPγS, RNase A/T1 or apyrase (the last two promoted monomerization); native PAGE and western blot
protein,measurement,value
B1,binding result,binds
